Reference: publication PMC7573591 (Nature Communications, 2020)

Legend:
purified protein [1] = substrate: C=C(C)CCO[P@@](=O)(O)OP(=O)(O)O; assay: purified protein; conditions: 10 μM FPP, 0.5 mM MgCl2, pH 7.5, 30 °C, 0.02% Triton X-100, labelled compound
purified protein [2] = substrate: CC(C)=CCC/C(C)=C/CC/C(C)=C/CO[P@@](=O)(O)OP(=O)(O)O; assay: purified protein; type: biochemical, Homo sapiens; conditions: 100 μM IPP, 0.5 mM MgCl2, pH 7.5, 30 °C, 0.02% Triton X-100
[3] = target: the molecule itself; assay: cross-linking; about 8 µM purified shcis-PT with 0.005% glutaraldehyde, room temperature, 15 min; products analysed by SDS-PAGE

B1: shcis-PT (soluble human cis-prenyltransferase complex, DHDDS-sNgBR) (Homo sapiens) (protein)
chain 1: MSWIKEGELSLWERFCANIIKAGPMPKHIAFIMDGNRRYAKKCQVERQEGHSQGFNKLAETLRWCLNLGILEVTVYAFSIENFKRSKSEVDGLMDLARQKFSRLMEEKEKLQKHGVCIRVLGDLHLLPLDLQELIAQAVQATKNYNKCFLNVCFAYTSRHEISNAVREMAWGVEQGLLDPSDISESLLDKCLYTNRSPHPDILIRTSGEVRLSDFLLWQTSHSCLVFQPVLWPEYTFWNLFEAILQFQMNHSVLQKARDMYAEERKRQQLERDQATVTEQLLREGLQASGDAQLRRTRLHKLSARREERVQGFLQALELKRADWLARLGTASA
chain 2: RGGSCLAAAHHRMRWRADGRSLEKLPVHMGLVITEVEQEPSFSDIASLVVWCMAVGISYISVYDHQGIFKRNNSRLMDEILKQQQELLGLDCSKYSPEFANSNDKDDQVLNCHLAVKVLSPEDGKADIVRAAQDFCQLVAQKQKRPTDLDVDTLASLLSSNGCPDPDLVLKFGPVDSTLGFLPWHIRLTEIVSLPSHLNISYEDFFSALRQYAACEQRLGK
notes: full-length DHDDS 1-333 plus cytosolic NgBR 73-293 (no transmembrane domain); co-expressed in E. coli; TRX fusions, His- and Strep-tags cut by TEV
B1 was tested. Which Km (purified protein [1]) did it give?
The Km was 6.23 ± 1.50 µM.

And the kcat (purified protein [1])?
The kcat was 0.74 ± 0.02 s⁻¹.

What about the Km (purified protein [2]) of the same protein?
Its Km is 0.11 ± 0.01 µM.

What about the kcat (purified protein [2]) of the same protein?
Its kcat is 0.74 ± 0.02 s⁻¹.

B2: dehydrodolichyl diphosphate synthase (DHDDS), full-length human, residues 1-333 (enzyme, UniProt Q86SQ9 1-333, looked up)
chain: B1 chain 1
notes: human dehydrodolichyl diphosphate synthase (DHDDS), full length, residues 1-333, UniProt Q86SQ9; Cloned into pET-32b as a TRX fusion with a TEV site; tags and TRX removed by TEV protease before the final size-exclusion step; also called DHDD synthase; catalytic subunit of hcis-PT / shcis-PT / xcis-PT
Does B2 bind [3]?
Result: binds
